Test results reported in patent US20120195879A1 (published 2012).

Molecular target: T1, keyhole limpet hemocyanin (multimeric high molecular weight KLH) (Megathura crenulata (keyhole limpet), UniProt Q10583 17-3414; Q10584 20-3421)
T1 construct: also called mcKLH; Multimeric KLH
Experiment: SPR (BIAcore 2000), antibody captured on anti-human IgG Fc surface, multimeric KLH injected; apparent constants
Method: Multimeric high molecular weight keyhole limpet hemocyanin (KLH) was from Pierce (Rockford, Ill.). Anti-human IgG, Fcγ-specific antibody was from Jackson ImmunoResearch Laboratories, Inc. (West Grove, Pa.). BIACore 2000, research grade sensor chip CM5, surfactant P-20 (polyoxyethylenesorbitan), HBS-EP (10 mM HEPES, 0.15M NaCl, 3.4 mM EDTA, 0.005% P-20, pH 7.4), amine coupling reagents, 10 mM acetate, pH 4.5, and 10 mM glycine, pH 1.5 were from BIACore, Inc. (Piscataway, N.J.). Phosphate-buffered saline (PBS, 1×, no calcium chloride, no magnesium chloride) was from Invitrogen (Carlsbad, Calif.). Bovine serum albumin (BSA, fraction V, IgG free) was from Sigma (St. Louis, Mo.).
Anti-KLH antibody wase captured on individual flow cells, followed by injection of either sample buffer or KLH, ranging in concentration from 0.19-100 nM. To prepare dilutions of the multimeric high molecular weight KLH, an average molecular weight of 5,000,000 daltons was used. Following sample buffer or antigen injection, each surface was regenerated by two injections of 10 mM glycine, pH 1.5 to dissociate captured antibody from the immobilized anti-human Fc surfaces. BIAevaluation software was used to determine apparent kinetic parameters for binding of KLH to captured anti-KLH antibodies.

B1: anti-KLH antibody (human IgG1, clone 120.6.1) (antibody, V domains shown)
VH: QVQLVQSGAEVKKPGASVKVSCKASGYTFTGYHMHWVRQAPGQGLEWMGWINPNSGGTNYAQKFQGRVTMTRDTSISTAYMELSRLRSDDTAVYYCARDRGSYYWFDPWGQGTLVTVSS
VL: DIQMTQSPSSLSASVGDRVTITCRASQGIRNDLGWYQQKPGKAPKRLIYAASSLQSGVPSRFSGSGSGTEFTLTISSLQPEDFATYYCLQHNSYPLTFGGGTKVEIK
notes: also called IgG1 (120.6.1); anti-KLH 120.6.1
In the case of B1, the Kd is reported as 0.2 nM, the koff is reported as 2.5e-05 s⁻¹ and the kon is reported as 120000 M⁻¹ s⁻¹.
